{
  "source": "patent US20050227220A1",
  "about": "“Compositions and Methods for Evaluating and Designing Nuclear Receptor Ligands that Modulate Co-Regulator Affinity” (priority 2002, published 2005)",
  "binders": {"B1": {"name": "VP16-human PPARα (full length) (other)", "chain": "LSTAPPTDVSLGDELHLDGEDVAMAHADALDDFDLDMLGDGDSPGPGFTPHDSAPYGALDMADFEFEQMFTDALGIDEYGGMVDTESPLCPLSPLEAGDLESPLSEEFLQEMGNIQEISQSIGEDSSGSFGFTEYQYLGSCPGSDGSVITDTLSPASSPSSVTYPVVPGSVDESPSGALNIECRICGDKASGYHYGVHACEGCKGFFRRTIRLKLVYDKCDRSCKIQKKNRNKCQYCRFHKCLSVGMSHNAIRFGRMPRSEKAKLKAEILTCEHDIEDSETADLKSLAKRIYEAYLKNFNMNKVKARVILSGKASNNPPFVIHDMETLCMAEKTLVAKLVANGIQNKEAEVRIFHCCQCTSVETVTELTEFAKAIPGFANLDLNDQVTLLKYGVYEAIFAMLSSVMNKDGMLVAYGNGFITREFLKSLRKPFCDIMEPKFDFAMKFNALELDDSDISLFVAAIICCGDRPGLLNVGHIEKMQEGIVHVLRLHLQSNHPDDIFLFPKLLQKMADLRQLVTEHAQLVQIIKKTESDAALHPLLQEIYRDMY", "notes": "also called VP16 full length PPARα"}, "B2": {"name": "RXRα ligand binding domain (amino acids 225-462) (receptor, UniProt P19793 225-462, looked up)", "chain": "SANEDMPVERILEAELAVEPKTETYVEANMGLNPSSPNDPVTNICQAADKQLFTLVEWAKRIPHFSELPLDDQVILLRAGWNELLIASFSHRSIAVKDGILLATGLHVHRNSAHSAGVGAIFDRVLTELVSKMRDMQMDKTELGCLRAIVLFNPDSKGLSNPAEVEALREKVYASLEAYCKHKYPEQPGRFAKLLLRLPALRSIGLKCLEHLFFFKLIGDTPIDTFLMEMLEAPHQMT", "notes": "range 225-462; Biotinylated for FRET; also called RXRα LBD; not shown: His-tag"}, "B3": {"name": "human PPARδ ligand binding domain (amino acids 139-441) (receptor)", "chain": "MKKGHHHHHHGSHNAIRFGRMPEAEKRKLVAGLTANEGSQYNPQVADLKAFSKHIYNAYLKNFNMTKKKARSILTGKASHTAPFVIHDIETLWQAEKGLVWKQLVNGLPPYKEISVHVFYRCQCTTVETVRELTEFAKSIPSFSSLFLNDQVTLLKYGVHEAIFAMLASIVNKDGLLVANGSGFVTREFLRSLRKPFSDIIEPKFEFAVKFNALELDDSDLALFIAAIILCGDRPGLMNVPRVEAIQDTILRALEFHLQANHPDAQYLFPKLLQKMADLRQLVTEHAQMMQRIKKTETETSLHPLLQEIYKDMY", "modifications": "Biotinylated (site not stated) in the FRET assays; unlabelled in fluorescence polarization and SPR.", "notes": "placed at the N-terminus here; Biotinylated for FRET; also called PPARδ LBD"}, "B4": {"name": "human PPARγ ligand binding domain (amino acids 206-477) (receptor)", "chain": "MKKGHHHHHHGPESADLRALAKHLYDSYIKSFPLTKAKARAILTGKTTDKSPFVIYDMNSLMMGEDKIKFKHITPLQEQSKEVAIRIFQGCQFRSVEAVQEITEYAKSIPGFVNLDLNDQVTLLKYGVHEIIYTMLASLMNKDGVLISEGQGFMTREFLKSLRKPFGDFMEPKFEFAVKFNALELDDSDLAIFIAVIILSGDRPGLLNVKPIEDIQDNLLQALELQLKLNHPESSQLFAKLLQKMTDLRQIVTEHVQLLQVIKKTETDMSLHPLLQEIYKDLY", "notes": "range 206-477; placed at the N-terminus here; Biotinylated for FRET; also called PPARγ LBD"}},
  "key": {"GAL4-NcoR (1944-end)": {"molecular_target": "T1, GAL4-NcoR (1944-end) (UniProt P04386 1-147; O75376 1944-2440)", "T1 construct": "range 1-147;range 1944-end; Two-hybrid construct; also called larger fragment of NCoR (1944-end)", "experiment": "mammalian two-hybrid in CV-1 cells"}, "[1]": {"molecular_target": "B4", "experiment": "FRET, biotinylated PPAR LBD and RXRα LBD on labelled streptavidin"}, "[2]": {"molecular_target": "B3", "experiment": "FRET, biotinylated PPAR LBD and RXRα LBD on labelled streptavidin"}, "[3]": {"molecular_target": "T2, human PPARα ligand binding domain (amino acids 192-468) (human, UniProt Q07869 192-468)", "T2 construct": "range 192-468; placed at the N-terminus here; Biotinylated for FRET; also called PPARα LBD", "T2 sequence": "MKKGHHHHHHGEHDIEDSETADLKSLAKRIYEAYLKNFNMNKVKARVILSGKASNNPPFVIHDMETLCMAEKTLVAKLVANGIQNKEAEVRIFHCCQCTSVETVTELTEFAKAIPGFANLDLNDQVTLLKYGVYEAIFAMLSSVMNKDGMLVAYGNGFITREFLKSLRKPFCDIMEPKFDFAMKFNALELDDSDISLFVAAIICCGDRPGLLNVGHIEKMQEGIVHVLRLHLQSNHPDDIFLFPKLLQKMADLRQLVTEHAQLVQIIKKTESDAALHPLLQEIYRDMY", "experiment": "FRET, biotinylated PPAR LBD and RXRα LBD on labelled streptavidin"}, "[4]": {"molecular_target": "T3, biotin-NCOR ID-C peptide (NCoR amino acids 2251-2275) (N-terminal biotin)", "T3 construct": "also called NCOR-derived co-repressor peptide", "T3 peptide": "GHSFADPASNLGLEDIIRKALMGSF", "experiment": "FRET, with GW1929"}, "[5]": {"molecular_target": "T3, biotin-NCOR ID-C peptide (NCoR amino …)", "experiment": "FRET, with GW7845"}, "[6]": {"molecular_target": "T4, Fluoroscein-NCOR ID-C peptide (NCoR amino acids 2251-2275) (N-terminal fluorescein)", "T4 construct": "also called NCOR peptide; NCoR 2251-2275", "T4 peptide": "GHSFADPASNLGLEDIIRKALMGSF", "experiment": "fluorescence polarization, with GW1929"}, "[7]": {"molecular_target": "T5, TRAP220 peptide (amino acids 575-599) (not fully specified; printed as N-terminal biotin in Example 1; label in the polarization assay not specified)", "T5 construct": "also called TRAP220 575-599", "T5 peptide": "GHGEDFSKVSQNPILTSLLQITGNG", "experiment": "fluorescence polarization, with GW1929"}, "[8]": {"molecular_target": "T4, Fluoroscein-NCOR ID-C peptide (NCoR …)", "experiment": "fluorescence polarization, with rosiglitazone"}, "[9]": {"molecular_target": "T5, TRAP220 peptide (amino acids 575-599)", "experiment": "fluorescence polarization, with rosiglitazone"}},
  "data": [
    {"binder": "B1", "values": [
      {"measurement": "binding result", "setting": "GAL4-NcoR (1944-end)", "result": "binds"}
    ]},
    {"binder": "B2", "values": [
      {"measurement": "binding result", "setting": "[1]", "result": "binds"},
      {"measurement": "binding result", "setting": "[2]", "result": "binds"},
      {"measurement": "binding result", "setting": "[3]", "result": "binds"}
    ]},
    {"binder": "B3", "values": [
      {"measurement": "log α (ratio of cofactor affinities with and without saturating ligand)", "setting": "[4]", "result": 0.52},
      {"measurement": "log α (ratio of cofactor affinities with and without saturating ligand)", "setting": "[5]", "result": 0.14},
      {"measurement": "fold increase in affinity with GW1929 against no ligand", "setting": "[6]", "result": 12, "unit": "fold"}
    ]},
    {"binder": "B4", "values": [
      {"measurement": "fold decrease in affinity with GW1929 against no ligand", "setting": "[6]", "result": 5, "unit": "fold"},
      {"measurement": "fold increase in affinity with GW1929 against no ligand", "setting": "[7]", "result": 5, "unit": "fold"},
      {"measurement": "fold decrease in affinity with rosiglitazone against no ligand", "setting": "[8]", "result": "~4", "unit": "fold"},
      {"measurement": "fold increase in affinity with rosiglitazone against no ligand", "setting": "[9]", "result": "~3", "unit": "fold"}
    ]}
  ]
}
